For experiment [1], the target named is T1, CD137 expressed on the cell surface (CHO/CD137 cells) (UniProt Q07011 24-255, limits assumed).
T1 construct: whole, on cells; also called cell surface CD137; Jurkat-NF-κB-Luc reporter cells overexpressing CD137
Kind of experiment: flow cytometry (FACS) on CHO cells expressing CD137, MFI. The protocol:
FACS analysis to evaluate the test articles for binding to cell surface CD137 was performed essentially as follows: 100 μL of CHO cells expressing CD137 (CHO/CD137) (1.0×10⁵ to 1×10⁶ cells/well) and 100 μL of serially diluted test article or control was added to each well of microtiter assay plate(s), mixed and incubated at RT for about 30 min. The cells were washed with FACS Buffer and secondary antibody (goat anti-human-APC, PE, or FITC) was then added to each well (1:1000), after which, the components were mixed and the wells were incubated at RT for about 30 min. Cells were washed and resuspended in 250 μL FACS Buffer and analyzed by flow cytometry (BD LSR Fortessa or FACSCanto II) for cell events collection. Data analysis were performed via FloJo v10.
(Flow cytometry measures light scatter and fluorescence of single cells or particles in a stream.)

Experiment [2] deals with T2, PD-L1 expressed on the cell surface (CHO/PD-L1 cells) (UniProt Q9NZQ7 19-290).
T2 construct: whole, on cells; also called PD-L1 on JIMT-1 cells
T2 sequence (Q9NZQ7 19-290): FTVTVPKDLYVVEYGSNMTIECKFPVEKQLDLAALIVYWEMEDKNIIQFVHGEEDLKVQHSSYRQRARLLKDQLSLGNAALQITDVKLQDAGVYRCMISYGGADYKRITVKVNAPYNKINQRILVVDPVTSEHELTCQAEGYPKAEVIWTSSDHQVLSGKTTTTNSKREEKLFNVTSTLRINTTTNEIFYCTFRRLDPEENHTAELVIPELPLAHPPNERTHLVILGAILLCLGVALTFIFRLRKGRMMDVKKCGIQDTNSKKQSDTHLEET
Kind of experiment: flow cytometry (FACS) on CHO cells expressing PD-L1, MFI. The protocol: FACS analysis to evaluate the test articles for binding to cell surface PD-L1 was performed essentially as follows: 100 μL of CHO cells expressing PD-L1 (CHO/PD-L1) (1.0×10⁵ to 1.0×10⁶ cells/well) and 100 μL of serially diluted test article was added to each well of microtiter assay plate(s), mixed and incubated at RT for about 30 min. The cells were washed with FACS Buffer and secondary antibody (goat anti-human-FITC, PE, or APC) was then added to each well, after which, the components were mixed and the wells were incubated at RT for about 30 min. Cells were washed and resuspended in 250 μL FACS Buffer and analyzed by flow cytometry (BD LSR Fortessa or FACSCanto II) for cell events collection. Data analysis were performed via FloJo v10.
Test articles were used at 10 μg/mL and five-fold serial dilutions for the FACS analysis and at 50 μg/mL and five-fold serial dilutions for the PD-L1 reporter assay.

The target of experiment [3] is T2, PD-L1 expressed on the cell surface …. Kind of experiment: cell-based or functional assay.
Experiment [4] shares this target. Kind of experiment: flow cytometry (FACS) on JIMT-1 cells (PD-L1 positive), MFI.
For experiment [5] the target is unchanged. Kind of experiment: cell-based or functional assay. This is another data set of the same source.
Experiment [6] concerns the target T1, CD137 expressed on the cell surface …. Kind of experiment: flow cytometry (FACS) on CHO cells expressing CD137, MFI. This is another data set of the same source.

The record followed here is patent US20230094162A1 (MacroGenics, published 2023).

Like-named read-outs stand apart in the source and are kept apart here.

T1 sequence (Q07011 24-255 limits assumed): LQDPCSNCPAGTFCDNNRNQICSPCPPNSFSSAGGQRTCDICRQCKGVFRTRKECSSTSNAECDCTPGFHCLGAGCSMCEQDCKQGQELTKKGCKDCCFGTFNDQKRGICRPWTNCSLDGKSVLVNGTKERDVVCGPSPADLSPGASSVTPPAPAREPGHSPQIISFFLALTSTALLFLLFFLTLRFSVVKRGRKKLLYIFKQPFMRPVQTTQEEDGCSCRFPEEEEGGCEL

B1: TRIDENT-A (bispecific antibody, human IgG1, kappa, L234A L235A)
chain 1: EIVMTQSPATLSLTPGERATLSCRASQSVSSNYLSWFQQIPGQAPRLLIYGASTRATGIPARFSGSGSGTDFTLTISSLQPEDFAVYYCQQDYDLPWTFGQGTKVEIKGGGSGGGGQVQLQESGPGLVKPSETLSLTCTVSGGSISSYYWSWIRQPPGKGLEWIGRIYTSGSTNYNPSLKSRVTMSVDTSKNQFSLKLSSVTAADTAVYYCARDGWYDEDYNYYGMDVWGQGTTVTVSSGGCGGGEVAALEKEVAALEKEVAALEKEVAALEKGGGDKTHTCPPCPAPEAAGGPSVFLFPPKPKDTLYITREPEVTCVVVDVSHEDPEVKFNWYVDGVEVHNAKTKPREEQYNSTYRVVSVLTVLHQDWLNGKEYKCKVSNKALPAPIEKTISKAKGQPREPQVYTLPPSREEMTKNQVSLWCLVKGFYPSDIAVEWESNGQPENNYKTTPPVLDSDGSFFLYSKLTVDKSRWQQGNVFSCSVMHEALHNHYTQKSLSLSPGK
chain 2: EIVMTQSPATLSLTPGERATLSCRASQSVSSNYLSWFQQIPGQAPRLLIYGASTRATGIPARFSGSGSGTDFTLTISSLQPEDFAVYYCQQDYDLPWTFGQGTKVEIKGGGSGGGGQVQLQESGPGLVKPSETLSLTCTVSGGSISSYYWSWIRQPPGKGLEWIGRIYTSGSTNYNPSLKSRVTMSVDTSKNQFSLKLSSVTAADTAVYYCARDGWYDEDYNYYGMDVWGQGTTVTVSSGGCGGGKVAALKEKVAALKEKVAALKEKVAALKE
heavy: EVQLVESGGGLVQPGGSLRLSCAASGFTFSSYTMSWVRQAPGKGLEWVAYISIGGGTTYYPDTVKGRFTISRDNAKNTLYLQMNSLKTEDTAVYYCARQGLPYYFDYWGQGTLVTVSSASTKGPSVFPLAPSSKSTSGGTAALGCLVKDYFPEPVTVSWNSGALTSGVHTFPAVLQSSGLYSLSSVVTVPSSSLGTQTYICNVNHKPSNTKVDKRVEPKSCDKTHTCPPCPAPEAAGGPSVFLFPPKPKDTLYITREPEVTCVVVDVSHEDPEVKFNWYVDGVEVHNAKTKPREEQYNSTYRVVSVLTVLHQDWLNGKEYKCKVSNKALPAPIEKTISKAKGQPREPQVYTLPPSREEMTKNQVSLSCAVKGFYPSDIAVEWESNGQPENNYKTTPPVLDSDGSFFLVSKLTVDKSRWQQGNVFSCSVMHEALHNRYTQKSLSLSPGK
light: DIQMTQSPSSLSASVGDRVTITCKASQDVNTAVAWYQQKPGKAPKLLIYWASTRHTGVPSRFSGSGSGTDFTLTISSLQPEDFATYYCQQHYNTPLTFGQGTKVEIKRTVAAPSVFIFPPSDEQLKSGTASVVCLLNNFYPREAKVQWKVDNALQSGNSQESVTEQDSKDSTYSLSSTLTLSKADYEKHKVYACEVTHQGLSSPVTKSFNRGEC
notes: Trivalent: two CD137 MAB-6(1.1) sites, one hPD-L1 MAB-2(1.1) Fab-type site
Consider B1, for which the EC50 (read off the curve) – broadly, the concentration at which the effect is half-maximal – in experiment [1] is approximately 0.02 µg/mL; in experiment [2], approximately 0.08 µg/mL.

B2: DART-A1 (bispecific antibody)
first and third polypeptide chains: DIQMTQSPSSLSASVGDRVTITCKASQDVNTAVAWYQQKPGKAPKLLIYWASTRHTGVPSRFSGSGSGTDFTLTISSLQPEDFATYYCQQHYNTPLTFGQGTKVEIKGGGSGGGGQVQLQESGPGLVKPSETLSLTCTVSGGSISSYYWSWIRQPPGKGLEWIGRIYTSGSTNYNPSLKSRVTMSVDTSKNQFSLKLSSVTAADTAVYYCARDGWYDEDYNYYGMDVWGQGTTVTVSSGGCGGGEVAACEKEVAALEKEVAALEKEVAALEKLEPKSADKTHTCPPCPAPEAAGGPSVFLFPPKPKDTLYITREPEVTCVVVDVSHEDPEVKFNWYVDGVEVHNAKTKPREEQYNSTYRVVSVLTVLHQDWLNGKEYKCKVSNKALPAPIEKTISKAKGQPREPQVYTLPPSREEMTKNQVSLTCLVKGFYPSDIAVEWESNGQPENNYKTTPPVLDSDGSFFLYSKLTVDKSRWQQGNVFSCSVMHEALHNHYTQKSLSLSPGK
second and fourth polypeptide chains: EIVMTQSPATLSLTPGERATLSCRASQSVSSNYLSWFQQIPGQAPRLLIYGASTRATGIPARFSGSGSGTDFTLTISSLQPEDFAVYYCQQDYDLPWTFGQGTKVEIKGGGSGGGGEVQLVESGGGLVQPGGSLRLSCAASGFTFSSYTMSWVRQAPGKGLEWVAYISIGGGTTYYPDTVKGRFTISRDNAKNSLYLQMNSLRAEDTAVYYCARQGLPYYFDYWGQGTLVTVSSGGCGGGKVAACKEKVAALKEKVAALKEKVAALKE
Consider B2, for which the 50% effective concentration (EC50 (read off the curve)) is approximately 0.1 µg/mL in experiment [3] and approximately 0.007 µg/mL in experiment [4].

B3: DART-A6 (bispecific antibody)
chain 1: DIQMTQSPSSLSASVGDRVTITCKASQDVNEAVAWYQQKPGKAPKLLIYWASTRHTGVPSRFSGSGSGTDFTLTISSLQPEDFATYYCQQHYNTPLTFGQGTKVEIKGGGSGGGGQVQLQESGPGLVKPSETLSLTCTVSGGSISSYYWSWIRQPPGKGLEWIGRIYTSGSTNYNPSLKSRVTMSVDTSKNQFSLKLSSVTAADTAVYYCARDGWYDEDYNYYGMDVWGQGTTVTVSSGGCGGGEVAACEKEVAALEKEVAALEKEVAALEKLEPKSADKTHTCPPCPAPEAAGGPSVFLFPPKPKDTLYITREPEVTCVVVDVSHEDPEVKFNWYVDGVEVHNAKTKPREEQYNSTYRVVSVLTVLHQDWLNGKEYKCKVSNKALPAPIEKTISKAKGQPREPQVYTLPPSREEMTKNQVSLTCLVKGFYPSDIAVEWESNGQPENNYKTTPPVLDSDGSFFLYSKLTVDKSRWQQGNVFSCSVMHEALHNHYTQKSLSLSPGK
chain 2: EIVMTQSPATLSLSPGERATLSCRASQSVSSNYLSWFQQKPGQAPRLLIYGASTRATGIPARFSGSGSGTDFTLTISSLQPEDFAVYYCQQDYDLPWTFGQGTKVEIKGGGSGGGGEVQLVESGGGLVQPGGSLRLSCAASGFTFSSYTMSWVRQAPGKGLEWVAYISIKGGTTYYPDTVKGRFTISRDNAKNSLYLQMNSLRAEDTAVYYCARQGLPYYGDYWGQGTLVTVSSGGCGGGKVAACKEKVAALKEKVAALKEKVAALKE
notes: Tetravalent; CD137 MAB-6(1.3) and hPD-L1 MAB-2(3.2)
As to B3, the half-maximal effective concentration (EC50 (read off the curve)) in experiment [5] is approximately 0.2 µg/mL; in experiment [1], approximately 0.05 µg/mL; in experiment [6], approximately 0.02 µg/mL.

B4: DART-A5 (bispecific antibody)
chain 1: DIQMTQSPSSLSASVGDRVTITCKASQDVNEAVAWYQQKPGKAPKLLIYWASTRHTGVPSRFSGSGSGTDFTLTISSLQPEDFATYYCQQHYNTPLTFGQGTKVEIKGGGSGGGGQVQLQESGPGLVKPSETLSLTCTVSGGSISSYYWSWIRQPPGKGLEWIGRIYTSGSTNYNPSLKSRVTMSVDTSKNQFSLKLSSVTAADTAVYYCARDGWYDEDYNYYGMDVWGQGTTVTVSSGGCGGGEVAACEKEVAALEKEVAALEKEVAALEKLEPKSADKTHTCPPCPAPEAAGGPSVFLFPPKPKDTLYITREPEVTCVVVDVSHEDPEVKFNWYVDGVEVHNAKTKPREEQYNSTYRVVSVLTVLHQDWLNGKEYKCKVSNKALPAPIEKTISKAKGQPREPQVYTLPPSREEMTKNQVSLTCLVKGFYPSDIAVEWESNGQPENNYKTTPPVLDSDGSFFLYSKLTVDKSRWQQGNVFSCSVMHEALHNHYTQKSLSLSPGK
chain 2: EIVMTQSPATLSLSPGERATLSCRASQSVSSNYLSWYQQKPGQAPRLLIYGASTRATGIPARFSGSGSGTDFTLTISSLQPEDFAVYYCQQDYDLPWTFGQGTKVEIKGGGSGGGGEVQLVESGGGLVQPGGSLRLSCAASGFTFSSYTMSWVRQAPGKGLEWVAYISIKGGTTYYPDTVKGRFTISRDNAKNSLYLQMNSLRAEDTAVYYCARQGLPYYGDYWGQGTLVTVSSGGCGGGKVAACKEKVAALKEKVAALKEKVAALKE
notes: Tetravalent; CD137 MAB-6(1.2) and hPD-L1 MAB-2(3.2)
For B4, the “EC50 (read off the curve)” value in experiment [6] was approximately 0.02 µg/mL.
